T1: LNX2_3, Q8N448
T1 sequence (Q8N448 463-564, limits assumed, looked up): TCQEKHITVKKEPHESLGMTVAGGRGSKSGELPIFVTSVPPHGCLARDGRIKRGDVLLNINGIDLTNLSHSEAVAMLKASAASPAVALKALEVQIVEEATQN

T2: RHPN1, Q8TCX5
T2 sequence (Q8TCX5 508-602, limits assumed, looked up): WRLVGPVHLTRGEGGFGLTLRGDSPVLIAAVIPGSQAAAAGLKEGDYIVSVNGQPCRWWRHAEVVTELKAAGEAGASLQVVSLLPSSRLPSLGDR

T3: CARD11, Q9BXL7
T3 sequence (Q9BXL7 662-765, limits assumed, looked up): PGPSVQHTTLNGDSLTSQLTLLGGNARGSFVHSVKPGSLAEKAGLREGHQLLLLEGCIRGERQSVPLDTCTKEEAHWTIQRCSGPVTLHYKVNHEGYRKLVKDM

T4: SNTG2, Q9NY99
T4 sequence (Q9NY99 68-166, limits assumed, looked up): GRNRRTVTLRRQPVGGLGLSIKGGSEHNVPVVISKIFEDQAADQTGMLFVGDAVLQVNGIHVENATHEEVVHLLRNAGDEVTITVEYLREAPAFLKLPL

T5: MPP2, Q14168
T5 sequence (Q14168 180-250, limits assumed, looked up): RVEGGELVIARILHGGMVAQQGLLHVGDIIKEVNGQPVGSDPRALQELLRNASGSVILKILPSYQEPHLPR

T6: MPP7, Q5T2T1
T6 sequence (Q5T2T1 134-230, limits assumed, looked up): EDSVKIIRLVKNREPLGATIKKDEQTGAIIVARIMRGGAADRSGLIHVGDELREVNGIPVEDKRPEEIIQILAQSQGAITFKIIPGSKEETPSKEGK

T7: MPP6, Q9NZW5
T7 sequence (Q9NZW5 125-219, limits assumed, looked up): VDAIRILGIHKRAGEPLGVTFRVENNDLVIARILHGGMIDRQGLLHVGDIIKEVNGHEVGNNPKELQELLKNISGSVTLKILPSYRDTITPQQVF

T8: SIPA1L2, Q9P2F8
T8 sequence (Q9P2F8 945-1036, limits assumed, looked up): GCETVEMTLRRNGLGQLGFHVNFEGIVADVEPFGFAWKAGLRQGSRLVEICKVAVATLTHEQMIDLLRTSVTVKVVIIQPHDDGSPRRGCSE

T9: GRIP1_2, Q9Y3R0
T9 sequence (Q9Y3R0 145-248, limits assumed, looked up): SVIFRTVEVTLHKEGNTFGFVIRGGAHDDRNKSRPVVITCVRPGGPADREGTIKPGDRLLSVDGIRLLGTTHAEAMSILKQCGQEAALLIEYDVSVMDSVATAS

T10: DLG3_3, Q92796
T10 sequence (Q92796 374-475, limits assumed, looked up): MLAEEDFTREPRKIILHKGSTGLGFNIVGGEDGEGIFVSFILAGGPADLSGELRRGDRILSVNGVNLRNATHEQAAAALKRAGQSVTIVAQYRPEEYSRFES

T11: DLG3_2, Q92796
T11 sequence (Q92796 221-321, limits assumed, looked up): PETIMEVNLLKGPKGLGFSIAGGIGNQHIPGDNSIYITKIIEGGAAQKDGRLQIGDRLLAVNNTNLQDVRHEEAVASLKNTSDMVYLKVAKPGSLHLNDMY


Columns and labels:
Experiment in all cases: holdup assay
Set-up in all cases: key: below the threshold = too weak to quantify, mostly under pKd 3.1 to 4
Settings in all cases: plain residues with an end cap or a label only (N-terminal biotin on a linker: ado-ado)
GRIP2_5, Q9C0E4 = target: GRIP2_5, Q9C0E4
TJP2_1, Q9UDY2 = target: TJP2_1, Q9UDY2
SCRIB_3, Q14160 = target: SCRIB_3, Q14160
LNX2_3, Q8N448 = target: T1, LNX2_3, Q8N448
RHPN1, Q8TCX5 = target: T2, RHPN1, Q8TCX5
PTPN3, P26045 = target: PTPN3, P26045
Inadl_4, Q8NI35 = target: Inadl_4, Q8NI35
ARHGEF12, Q9NZN5-2 = target: ARHGEF12, Q9NZN5-2
CARD11, Q9BXL7 = target: T3, CARD11, Q9BXL7
IL16_4, Q14005 = target: IL16_4, Q14005
GIPC2, Q8TF65 = target: GIPC2, Q8TF65
SNTG2, Q9NY99 = target: T4, SNTG2, Q9NY99
FRMPD2_2, Q68DX3 = target: FRMPD2_2, Q68DX3
NHERF4_1, Q86UT5-2 = target: NHERF4_1, Q86UT5-2
MPP2, Q14168 = target: T5, MPP2, Q14168
MPP7, Q5T2T1 = target: T6, MPP7, Q5T2T1
SCRIB_1, Q14160 = target: SCRIB_1, Q14160
PDLIM1, O00151 = target: PDLIM1, O00151
GRIP2_7, Q9C0E4 = target: GRIP2_7, Q9C0E4
GRIP2_4, Q9C0E4 = target: GRIP2_4, Q9C0E4
MPP6, Q9NZW5 = target: T7, MPP6, Q9NZW5
SIPA1L2, Q9P2F8 = target: T8, SIPA1L2, Q9P2F8
GRIP1_2, Q9Y3R0 = target: T9, GRIP1_2, Q9Y3R0
DLG3_3, Q92796 = target: T10, DLG3_3, Q92796
DLG3_2, Q92796 = target: T11, DLG3_2, Q92796
NOS1, P29475 = target: NOS1, P29475
NOS1, P29475, sequence (P29475 9-101): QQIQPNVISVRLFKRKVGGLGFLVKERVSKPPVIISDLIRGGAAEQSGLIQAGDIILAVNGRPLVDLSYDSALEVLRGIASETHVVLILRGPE

GRIP2_7, Q9C0E4, sequence (Q9C0E4 934-1023): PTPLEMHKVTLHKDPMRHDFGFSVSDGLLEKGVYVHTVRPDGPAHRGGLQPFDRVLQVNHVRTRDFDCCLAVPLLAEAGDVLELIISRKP
GRIP2_5, Q9C0E4, sequence (Q9C0E4 544-642): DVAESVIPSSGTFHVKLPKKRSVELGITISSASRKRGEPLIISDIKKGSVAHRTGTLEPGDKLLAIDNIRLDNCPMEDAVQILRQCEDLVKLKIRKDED
FRMPD2_2, Q68DX3, sequence (Q68DX3 944-1038): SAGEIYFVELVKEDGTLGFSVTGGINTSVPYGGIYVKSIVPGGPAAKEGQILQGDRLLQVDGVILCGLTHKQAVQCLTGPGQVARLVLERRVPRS
PTPN3, P26045, sequence (P26045 505-587): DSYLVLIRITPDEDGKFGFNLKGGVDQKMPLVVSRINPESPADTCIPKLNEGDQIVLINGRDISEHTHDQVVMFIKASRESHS
SCRIB_1, Q14160, sequence (Q14160 718-814): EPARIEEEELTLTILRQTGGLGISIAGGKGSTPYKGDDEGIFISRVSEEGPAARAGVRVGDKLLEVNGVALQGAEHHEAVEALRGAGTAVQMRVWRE
GIPC2, Q8TF65, sequence (Q8TF65 112-203): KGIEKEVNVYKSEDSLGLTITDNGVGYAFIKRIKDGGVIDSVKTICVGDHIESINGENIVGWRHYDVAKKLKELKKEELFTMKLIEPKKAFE
IL16_4, Q14005, sequence (Q14005 1229-1329): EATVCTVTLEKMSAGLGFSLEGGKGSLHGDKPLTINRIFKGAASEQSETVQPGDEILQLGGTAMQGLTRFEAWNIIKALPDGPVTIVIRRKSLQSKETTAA
SCRIB_3, Q14160, sequence (Q14160 999-1103): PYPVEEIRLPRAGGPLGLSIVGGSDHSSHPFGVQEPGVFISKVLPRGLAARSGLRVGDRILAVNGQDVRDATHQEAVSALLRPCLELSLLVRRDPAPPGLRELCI
PDLIM1, O00151, sequence (O00151 1-87): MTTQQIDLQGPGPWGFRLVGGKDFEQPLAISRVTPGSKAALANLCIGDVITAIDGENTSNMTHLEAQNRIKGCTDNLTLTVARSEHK
ARHGEF12, Q9NZN5-2, sequence (Q9NZN5 other isoform, or with tags, fused parts or gaps): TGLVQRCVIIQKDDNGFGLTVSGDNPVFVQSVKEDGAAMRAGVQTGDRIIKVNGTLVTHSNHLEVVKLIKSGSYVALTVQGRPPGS
TJP2_1, Q9UDY2, sequence (Q9UDY2 24-128): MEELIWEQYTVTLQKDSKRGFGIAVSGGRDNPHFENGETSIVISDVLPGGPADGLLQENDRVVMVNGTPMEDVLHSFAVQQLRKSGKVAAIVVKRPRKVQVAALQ
Inadl_4, Q8NI35, sequence (Q8NI35 547-651): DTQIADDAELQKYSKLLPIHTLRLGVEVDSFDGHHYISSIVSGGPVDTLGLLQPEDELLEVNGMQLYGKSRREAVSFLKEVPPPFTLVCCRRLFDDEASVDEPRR
GRIP2_4, Q9C0E4, sequence (Q9C0E4 446-548): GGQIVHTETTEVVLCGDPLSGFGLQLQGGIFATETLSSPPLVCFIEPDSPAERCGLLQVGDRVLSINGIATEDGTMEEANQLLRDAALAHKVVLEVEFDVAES
NHERF4_1, Q86UT5-2, sequence (Q86UT5 other isoform, or with tags, fused parts or gaps): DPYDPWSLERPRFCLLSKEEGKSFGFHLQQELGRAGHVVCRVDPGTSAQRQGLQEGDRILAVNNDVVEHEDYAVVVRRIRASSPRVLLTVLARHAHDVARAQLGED

Row | pKd (GRIP2_5, Q9C0E4) | pKd (TJP2_1, Q9UDY2) | pKd (SCRIB_3, Q14160) | pKd (LNX2_3, Q8N448) | pKd (RHPN1, Q8TCX5) | pKd (PTPN3, P26045) | pKd (Inadl_4, Q8NI35) | pKd (ARHGEF12, Q9NZN5-2) | pKd (CARD11, Q9BXL7) | pKd (IL16_4, Q14005) | pKd (GIPC2, Q8TF65) | pKd (SNTG2, Q9NY99) | pKd (FRMPD2_2, Q68DX3) | pKd (NHERF4_1, Q86UT5-2) | pKd (MPP2, Q14168) | pKd (MPP7, Q5T2T1) | pKd (SCRIB_1, Q14160) | pKd (PDLIM1, O00151) | pKd (GRIP2_7, Q9C0E4) | pKd (GRIP2_4, Q9C0E4) | Binder | other results
1 | below the threshold | below the threshold | 4.23 | below the threshold | 3.49 | 5.01 | below the threshold | 3.91 | below the threshold | 3.7 | below the threshold | 3.59 | below the threshold | 3.51 | below the threshold | below the threshold | below the threshold | below the threshold | below the threshold | below the threshold | GSSSKEGTSV [RRBP1, Q9P2E9] | pKd (MPP6, Q9NZW5): 3.77; pKd (SIPA1L2, Q9P2F8): below the threshold; pKd (GRIP1_2, Q9Y3R0): below the threshold; pKd (DLG3_3, Q92796): 3.71; pKd (DLG3_2, Q92796): 3.78; pKd (NOS1, P29475): 3.72
2 | 3.65 | below the threshold | 4.16 | below the threshold | 3.83 | 4.89 | below the threshold | below the threshold | below the threshold | 3.8 | 3.63 | 3.82 | 3.52 | 3.91 | below the threshold | below the threshold | 3.75 | 3.56 | 3.47 | 3.49 | QLAEIAESGL [ITK, Q08881] | pKd (MPP6, Q9NZW5): below the threshold; pKd (SIPA1L2, Q9P2F8): 3.67; pKd (GRIP1_2, Q9Y3R0): below the threshold; pKd (DLG3_3, Q92796): 3.55; pKd (DLG3_2, Q92796): below the threshold; pKd (NOS1, P29475): below the threshold
3 | below the threshold | below the threshold | below the threshold | below the threshold | below the threshold | 3.91 | below the threshold | 3.84 | below the threshold | 3.69 | 3.62 | 3.51 | below the threshold | 3.79 | below the threshold | below the threshold | below the threshold | below the threshold | below the threshold | below the threshold | PEEGKKQSQC [GAGE12J, A6NER3] | pKd (MPP6, Q9NZW5): below the threshold; pKd (SIPA1L2, Q9P2F8): below the threshold; pKd (GRIP1_2, Q9Y3R0): below the threshold; pKd (DLG3_3, Q92796): below the threshold; pKd (DLG3_2, Q92796): 4.04; pKd (NOS1, P29475): below the threshold

Further lines, the binder ahead of its results:

Row | Binder | pKd (GRIP2_5, Q9C0E4) | pKd (TJP2_1, Q9UDY2) | pKd (SCRIB_3, Q14160) | pKd (LNX2_3, Q8N448) | pKd (RHPN1, Q8TCX5) | pKd (PTPN3, P26045) | pKd (Inadl_4, Q8NI35) | pKd (ARHGEF12, Q9NZN5-2) | pKd (CARD11, Q9BXL7) | pKd (IL16_4, Q14005) | pKd (GIPC2, Q8TF65) | pKd (SNTG2, Q9NY99) | pKd (FRMPD2_2, Q68DX3) | pKd (NHERF4_1, Q86UT5-2) | pKd (MPP2, Q14168) | pKd (MPP7, Q5T2T1) | pKd (SCRIB_1, Q14160) | pKd (PDLIM1, O00151) | pKd (GRIP2_7, Q9C0E4) | pKd (GRIP2_4, Q9C0E4) | other results
4 | EGGKKRESEA [APPL1, Q9UKG1] | below the threshold | below the threshold | 3.82 | below the threshold | below the threshold | 4.14 | below the threshold | below the threshold | below the threshold | below the threshold | below the threshold | below the threshold | below the threshold | below the threshold | below the threshold | below the threshold | below the threshold | below the threshold | below the threshold | below the threshold | pKd (MPP6, Q9NZW5): below the threshold; pKd (SIPA1L2, Q9P2F8): below the threshold; pKd (GRIP1_2, Q9Y3R0): below the threshold; pKd (DLG3_3, Q92796): below the threshold; pKd (DLG3_2, Q92796): 4.22; pKd (NOS1, P29475): below the threshold
5 | PKLMGVETVV [DUSP10, Q9Y6W6] | below the threshold | below the threshold | 4.44 | below the threshold | 4.42 | 4.66 | below the threshold | 3.74 | below the threshold | below the threshold | below the threshold | 4.51 | 4.1 | below the threshold | below the threshold | below the threshold | 4.28 | below the threshold | below the threshold | below the threshold | pKd (MPP6, Q9NZW5): 3.82; pKd (SIPA1L2, Q9P2F8): below the threshold; pKd (GRIP1_2, Q9Y3R0): below the threshold; pKd (DLG3_3, Q92796): 3.91; pKd (DLG3_2, Q92796): 5.2; pKd (NOS1, P29475): 4.08
6 | VGIERETDVL [EZH1, Q92800] | below the threshold | below the threshold | 3.58 | below the threshold | below the threshold | 3.52 | below the threshold | below the threshold | below the threshold | 3.48 | below the threshold | below the threshold | below the threshold | 3.8 | below the threshold | below the threshold | below the threshold | below the threshold | below the threshold | below the threshold | pKd (MPP6, Q9NZW5): below the threshold; pKd (SIPA1L2, Q9P2F8): below the threshold; pKd (GRIP1_2, Q9Y3R0): below the threshold; pKd (DLG3_3, Q92796): below the threshold; pKd (DLG3_2, Q92796): 3.54; pKd (NOS1, P29475): below the threshold
